In publication PMC7422855 one finds stoichiometry N data, which are given here for one substance.

The assay deals with human n-Glyceraldehyde-3-phosphate dehydrogenase (human) (UniProt P04406). Put plainly: SEC-MALS; Superdex S200 10/300 in 20 mM HEPES pH 7.5, 100 mM NaCl, 1 mM TCEP; 18-angle MALS detector with differential refractive index detector. A general note: SEC sorts molecules by how far they enter the pores of the column.

By stoichiometry N is commonly meant the number of molecules, sites or subunits per partner or assembly. As for “human n-Glyceraldehyde-3-phosphate dehydrogenase, P04406 1-335 (enzyme; Cys152 partially oxidised to cysteine S-sulfonic acid (average occupancy 0.31±0.17 over 20 copies in crystal forms A, C and D; not significant in crystal form B); Cys152 partially oxidised to cysteine S-sulfonic acid (average occupancy 0.31±0.17 over 20 copies in crystal forms A, C and D; not significant in crystal form B); other documents disagree on this pair)”, the stoichiometry N was 4.
